Among the data in patent publication US7582460B2 (Wacker Chemie AG, priority 2003, dated 2009) are Activity and Ki values, retold here.

Substitutions are numbered along the chain they refer to. Numbers in names are those of the source.

The chains are these.
B1: serA416: E. coli PGD variant with replacement G349R (protein, UniProt P0A9T0 2-410, looked up, variant G349R)
D-3-phosphoglycerate …: AKVSLEKDKIKFLLVEGVHQKALESLRAAGYTNIEFHKGALDDEQLKESIRDAHFIGLRSRTHLTEDVINAAEKLVAIGCFCIGTNQVDLDAAAKRGIPVFNAPFSNTRSVAELVIGELLLLLRGVPEANAKAHRGVWNKLAAGSFEARGKKLGIIGYGHIGTQLGILAESLGMYVYFYDIENKLPLGNATQVQHLSDLLNMSDVVSLHVPENPSTKNMMGAKEISLMKPGSLLINASRGTVVDIPALCDALASKHLAGAAIDVFPTEPATNSDPFTSPLCEFDNVLLTPHIGGSTQEAQENIGLEVAGKLIKYSDNGSTLSAVNFPEVSLPLHGGRRLMHIHENRPRVLTALNKIFAEQGVNIAAQYLQTSAQMGYVVIDIEADEDVAEKALQAMKAIPGTIRARLLY
B2: serA208: E. coli PGD variant with replacement T372H (protein, UniProt P0A9T0 2-410, looked up, variant T372H)
D-3-phosphoglycerate …: B1 D-3-phosphoglycerate … with R348G, T371H
B3: serA445: E. coli PGD variant with replacement G349C (protein, UniProt P0A9T0 2-410, looked up, variant G349C)
D-3-phosphoglycerate …: B1 D-3-phosphoglycerate … with R348C
B4: serA226: E. coli PGD variant with replacement T372L (protein, UniProt P0A9T0 2-410, looked up, variant T372L)
D-3-phosphoglycerate …: B1 D-3-phosphoglycerate … with R348G, T371L
B5: serA40: E. coli PGD variant, mutation at codon 349 printed G349 (G349D per Table 3) (protein, UniProt P0A9T0 2-410, looked up, variant G349D)
D-3-phosphoglycerate …: B1 D-3-phosphoglycerate … with R348D
B6: serA46: E. coli PGD variant with replacement G349M (protein, UniProt P0A9T0 2-410, looked up, variant G349M)
D-3-phosphoglycerate …: B1 D-3-phosphoglycerate … with R348M
B7: serA421: E. coli PGD variant with replacement G349N (protein, UniProt P0A9T0 2-410, looked up, variant G349N)
D-3-phosphoglycerate …: B1 D-3-phosphoglycerate … with R348N
B8: serA420: E. coli PGD variant with replacement G349H (protein, UniProt P0A9T0 2-410, looked up, variant G349H)
D-3-phosphoglycerate …: B1 D-3-phosphoglycerate … with R348H
B9: serA45: E. coli PGD variant with replacement G349I (protein, UniProt P0A9T0 2-410, looked up, variant G349I)
D-3-phosphoglycerate …: B1 D-3-phosphoglycerate … with R348I
B10: serA212: E. coli PGD variant with replacement T372F (protein, UniProt P0A9T0 2-410, looked up, variant T372F)
D-3-phosphoglycerate …: B1 D-3-phosphoglycerate … with R348G, T371F
B11: serA422: E. coli PGD variant with replacement G349Q (protein, UniProt P0A9T0 2-410, looked up, variant G349Q)
D-3-phosphoglycerate …: B1 D-3-phosphoglycerate … with R348Q
B12: serA210: E. coli PGD variant with replacement T372W (protein, UniProt P0A9T0 2-410, looked up, variant T372W)
D-3-phosphoglycerate …: B1 D-3-phosphoglycerate … with R348G, T371W
B13: serA220: E. coli PGD variant with replacement T372S (protein, UniProt P0A9T0 2-410, looked up, variant T372S)
D-3-phosphoglycerate …: B1 D-3-phosphoglycerate … with R348G, T371S
B14: serA417: E. coli PGD variant with replacement G349W (protein, UniProt P0A9T0 2-410, looked up, variant G349W)
D-3-phosphoglycerate …: B1 D-3-phosphoglycerate … with R348W
B15: serA231: E. coli PGD variant with replacement T372C (protein, UniProt P0A9T0 2-410, looked up, variant T372C)
D-3-phosphoglycerate …: B1 D-3-phosphoglycerate … with R348G, T371C
B16: serA218: E. coli PGD variant with replacement T372N (protein, UniProt P0A9T0 2-410, looked up, variant T372N)
D-3-phosphoglycerate …: B1 D-3-phosphoglycerate … with R348G, T371N
B17: serA418: E. coli PGD variant with replacement G349Y (protein, UniProt P0A9T0 2-410, looked up, variant G349Y)
D-3-phosphoglycerate …: B1 D-3-phosphoglycerate … with R348Y
B18: serA222: E. coli PGD variant with replacement T372V (protein, UniProt P0A9T0 2-410, looked up, variant T372V)
D-3-phosphoglycerate …: B1 D-3-phosphoglycerate … with R348G, T371V
B19: serA214: E. coli PGD variant with replacement T372A (protein, UniProt P0A9T0 2-410, looked up, variant T372A)
D-3-phosphoglycerate …: B1 D-3-phosphoglycerate … with R348G, T371A
B20: serA221: E. coli PGD variant with replacement T372Q (protein, UniProt P0A9T0 2-410, looked up, variant T372Q)
D-3-phosphoglycerate …: B1 D-3-phosphoglycerate … with R348G, T371Q
B21: serA20: E. coli PGD variant with replacement T372I (protein, UniProt P0A9T0 2-410, looked up, variant T372I)
D-3-phosphoglycerate …: B1 D-3-phosphoglycerate … with R348G, T371I
B22: serA47: E. coli PGD variant with replacement G349E (protein, UniProt P0A9T0 2-410, looked up, variant G349E)
D-3-phosphoglycerate …: B1 D-3-phosphoglycerate … with R348E
B23: serA228: E. coli PGD variant with replacement T372M (protein, UniProt P0A9T0 2-410, looked up, variant T372M)
D-3-phosphoglycerate …: B1 D-3-phosphoglycerate … with R348G, T371M
B24: serA419: E. coli PGD variant with replacement G349F (protein, UniProt P0A9T0 2-410, looked up, variant G349F)
D-3-phosphoglycerate …: B1 D-3-phosphoglycerate … with R348F
B25: serA: Escherichia coli wild-type 3-phosphoglycerate dehydrogenase (PGD, SEQ ID NO: 2) encoded by the serA gene (protein, listed as Escherichia coli)
chain: MAKVSLEKDKIKFLLVEGVHQKALESLRAAGYTNIEFHKGALDDEQLKESIRDAHFIGLRSRTHLTEDVINAAEKLVAIGCFCIGTNQVDLDAAAKRGIPVFNAPFSNTRSVAELVIGELLLLLRGVPEANAKAHRGVWNKLAAGSFEARGKKLGIIGYGHIGTQLGILAESLGMYVYFYDIENKLPLGNATQVQHLSDLLNMSDVVSLHVPENPSTKNMMGAKEISLMKPGSLLINASRGTVVDIPALCDALASKHLAGAAIDVFPTEPATNSDPFTSPLCEFDNVLLTPHIGGSTQEAQENIGLEVAGKLIKYSDNGSTLSAVNFPEVSLPLHGGRRLMHIHENRPGVLTALNKIFAEQGVNIAAQYLQTSAQMGYVVIDIEADEDVAEKALQAMKAIPGTIRARLLY

One assay has as its system 3-phosphoglycerate dehydrogenase (PGD). Briefly: PGD enzyme activity in crude extracts (McKitrick and Pizer test). The conditions noted are these: crude extract of strain expressing plasmid-encoded serA allele; backward reaction, NADH oxidation at 340 nm. Format: biochemical, Escherichia coli. An excerpt: (§1) For example, the PGD activity can be determined in analogy with the method described by McKitrick and Pizer (1980, J. Bacteriol. 141:235-245). The backward reaction is used to measure the enzyme activity in an assay sample which contains phosphohydroxypyruvate and NADH/H^+. The reaction is started by adding enzyme and is monitored in a spectrophotometer by way of the decrease in extinction at 340 nm which is caused by oxidation of the NADH/H^+.
(§2) At an optical density of 1.0, serA expression was in each case induced by adding 0.4 mM […] and the culture was incubated for a further 3 hours. The cells were subsequently harvested by centrifugation, washed and resuspended in 2 ml of buffer (100 mM K-phosphate, pH 7.0; 10 mM MgCl2; 1 mM dithiothreitol). The cells were disrupted using a French press (Spectronic Instruments, Inc. Rochester, N.Y., USA) at a pressure of 18 000 psi. The crude extracts were clarified by centrifugation at 30 000 g and PGD activity was determined using the McKitrick and Pizer test (1980, J. Bacteriol. 141:235-245).
Take B1: the Activity turned out to be 0.04 units/mg.

Take B2: the Activity amounted to 0.05 units/mg.

The molecule B3 came in with an Activity of 0.04 units/mg.

Molecule B4 came in with an Activity of 0.04 units/mg.

Take B5: the Activity was found to be 0.05 units/mg.

B6 returned an Activity of 0.05 units/mg.

B7: the Activity stood at 0.05 units/mg.

For the molecule B8, the Activity is recorded as 0.05 units/mg.

B9 registered an Activity of 0.05 units/mg.

Molecule B10 gave an Activity of 0.05 units/mg.

B11 registered an Activity of 0.05 units/mg.

Consider B12, for which the Activity was determined as 0.04 units/mg.

In turn, B13 gave an Activity of 0.05 units/mg.

As for B14, the Activity amounted to 0.02 units/mg.

In turn, B15 showed an Activity of 0.02 units/mg.

As to B16, the Activity came out at 0.05 units/mg.

With B17, the Activity was determined as 0.05 units/mg.

Regarding B18, the Activity is 0.05 units/mg.

B19: the Activity was found to be 0.04 units/mg.

The molecule B20 registered an Activity of 0.05 units/mg.

As to B21, the Activity was 0.05 units/mg.

Molecule B22 had an Activity of 0.05 units/mg.

For the molecule B23, the Activity is on record as 0.03 units/mg.

For the molecule B24, the Activity is recorded as 0.05 units/mg.

Take B25: the Activity came out at 0.05 units/mg.

The next assay has as its target 3-phosphoglycerate dehydrogenase (PGD). In words: Inhibition of PGD activity by L-serine, inhibitor constant Ki. Format: biochemical, Escherichia coli. The note with it: Ki = inhibitor concentration at which activity is 50% of activity without inhibitor.
Text: as §1, §2
For the molecule B1, the Ki came to 15 mM.

Consider B2, for which the Ki came out at 80 mM.

B3 had a Ki of 5 mM. This Ki is about 16-fold lower than that of the molecule before.

B4 yielded a Ki of 40 mM.

B5 showed a Ki of 25 mM.

The molecule B6 yielded a Ki of 1 mM.

The molecule B7 returned a Ki of 15 mM.

With B8, affinity was put at a Ki of 10 mM.

B9 came in with a Ki of 5 mM.

Consider B10, for which the Ki came to 60 mM.

B11 registered a Ki of 15 mM.

Molecule B12 registered an inhibition constant Ki of 60 mM.

B13 yielded a Ki of 1 mM.

In turn, B14 had a Ki of 8 mM. Compared with the last molecule, the Ki is about 8-fold higher.

In turn, B15 yielded a Ki of 3 mM.

B16 registered a Ki of 100 mM.

The molecule B17 showed a Ki of 6 mM. Against the preceding molecule, the Ki is about 17-fold lower.

As to B18, the Ki turned out to be 40 mM.

The molecule B19 had a Ki of 10 mM.

As to B20, the inhibitory constant (Ki) was found to be 100 mM.

Take B21: affinity was put at a Ki of 40 mM.

The molecule B22 displayed a Ki of 20 mM.

Take B23: affinity was put at a Ki of 60 mM.

For B24, the inhibition constant (Ki) came out at 10 mM.

For the molecule B25, the Ki was below 0.1 mM.
